Patent publication US7951562B2, “Method for glycosylating hydroxylysine residues in polypeptides or peptides” (Oulun Yliopisto, priority 2000, dated 2011)

Tests used:
Type in all cases: biochemical
[1] = system: galactosylhydroxylysyl residues in calf skin gelatin substrate; assay: GGT (glucosyltransferase) activity of recombinant proteins expressed in Sf9 insect cells; settings: Sf9 cells, 72 hours after infection
Description: The glucosyltransferase activity can be assayed as described in Myllylä et al. (1975). The method is based on the transfer of radioactively (tritium) labelled glucose from UDP-glucose to galactosylhydroxylysyl residues in calf skin gelatin substrate and on the specific assay of the product of the enzyme reaction after alkaline hydrolysis.
Commercially available baculovirus transfer vector pFastBacI in the BAC-TO-BAC™ expression system (Life technologies, Inc.) was modified to contain human LH1 signal peptide (Hautala et al., 1992) and His6 tag, and BamHI restriction site for insertion of the desired cDNA, nucleotides 289-2455 of LH3 cDNA (SEQ ID NO 6) (Valtavaara et al., 1998). The construct was confirmed by sequencing. The recombinant protein contains His tag at the amino-terminus after signal peptide cleavage. Insect cells were harvested 0-72 hours after infection and homogenized according to the protocol described earlier (Valtavaara et al., 1997).
Human LH1 signal peptide and His6 tag was inserted to the cDNA constructs of LH1 and LH2. The baculovirus transfer vector pFastBacI was modified so that human LH1 signal sequence followed by nine nucleotides of the amino-terminal end was ligated to the His6 tag followed by nucleotides for BamHI restriction site. The human cDNA sequence (LH1 or LH2) (SEQ ID NO 21, 23 and 25) starting from the likely amino-terminal end of the molecule was ligated to the BamHI site of the construct. Two expression constructs were generated for LH2, LH2a and LH2b (SEQ ID NO 23 and 25), both of them covered the nucleotides from 76 to 2267 (Valtavaara et al., 1997). The LH2b construct contained also the alternatively spliced exon sequence (Valtavaara 1999; Yeowell and Walker, 1999) between nucleotides 1500 and 1501 (SEQ ID NO 25). The constructs were confirmed by sequencing. Insect cells were grown and homogenized as described above.
LH activity was assayed by a method based on the hydroxylation-coupled decarboxylation of 2-oxo(1-^14C)glutarate (Kivirikko and Myllylä 1982), synthetic peptide […] was used as a substrate. GGT activity was assayed as described elsewhere (Myllylä et al. 1975). The method is based on the transfer of radioactively (tritium) labelled glucose from UDP-glucose to galactosylhydroxylysyl residues in calf skin gelatin substrate and on the specific assay of the product of the enzyme reaction after alkaline hydrolysis.

[2] = system: synthetic peptide IKGIKGIKG; assay: LH activity of human LH isoforms expressed in E. coli; settings: E. coli expression system, data not shown
Description: The lysyl hydroxylase activity can be assayed by a method based on the hydroxylation-coupled decarboxylation of 2-oxo(1-^14C)glutarate (Kivirikko and Myllylä 1982), synthetic peptide […] was used as a substrate.
PFastBacI constructs for human LH1, LH2a, LH2b and LH3 were cleaved with BamHI and Hind III restriction enzymes and coding regions were subcloned into same site in E. coli expression vector pQE30 containing (His)6 tag at the amino terminus. Insert for C. elegans LH (corresponding to amino acids 14-730 in cDNA) was generated by PCR and ligated into SacI-PstI site of pOE30 vector. Constructs were transformed into E. coli XL1-Blue strain. Cultures were grown to OD600 of 0.6 at 37° C. Protein expression was induced by adding 1 mM IPTG and incubation was proceed at 30° C. for 5 hours. Cells were harvested and stored at −20° C. For activity measurements cell pellet was suspended to lysis buffer (0.4 M NaCl, 0.5% Nonident and 20 mM Tris-HCl pH 7.8, at 20° C.) and incubated in the presence of lysozyme (50 μg/ml), DNAase (10 μg/ml) and RNAase (10 μg g/ml) at room temperature for 30 minutes. Lysis was completed by sonication. Cell debris was pelleted and supernatant was used in the measurements.

[3] = system: hydroxylysyl residues in a calf skin gelatin substrate; assay: GT activity of recombinant proteins expressed with baculovirus vector in Sf9 cells; settings: baculovirus vector in insect cells, not shown
Protocol: Baculovirus transfer vector pFastBacI in the BAC-TO-BAC™ expression system was used to produce LH3 protein in Sf9 cells. The cDNA construct is in Example 1. The recombinant protein contains the His tag at the amino terminus after signal peptide cleavage. The cells were homogenized as described elsewhere (Valtavaara et al. 1997).
GT and GGT activities were measured by a method based on the transfer of radioactively (tritium)-labeled sugar from UDP-sugar to hydroxylysyl or galactosylhydroxylysyl residues in a calf skin gelatin substrate, respectively (Myllylä et al. 1975). The specific detection of the reaction products was performed after alkaline hydrolysis.

[4] = system: hydroxylysyl residues in a calf skin gelatin substrate; assay: GT (galactosyltransferase) activity of recombinant proteins expressed in E. coli; settings: E. coli cell supernatant, FIG. 12
Description: The galactosyltransferase activity can be assayed as described in Myllylä et al. (1975). The method is based on the transfer of radioactively (tritium) labelled galactose from UDP-galactose to hydroxylysyl residues in calf skin gelatin substrate and on the specific assay of the product of the enzyme reaction after alkaline hydrolysis.

B1: LH2b: recombinant human lysyl hydroxylase isoform 2, alternatively spliced form b (protein, listed as Homo sapiens)
chain: MGGCTVKPQLLLLALVLHPWNPCLGADSEKPSSIPTDKLLVITVATKESDGFHRFMQSAKYFNYTVKVLGQGEEWRGGDGINSIGGGQKVRLMKEVMEHYADQDDLVVMFTECFDVIFAGGPEEVLKKFQKANHKVVFAADGILWPDKRLADKYPVVHIGKRYLNSGGFIGYAPYVNRIVQQWNLQDNDDDQLFYTKVYIDPLKREAINITLDHKCKIFQTLNGAVDEVVLKFENGKARAKNTFYETLPVAINGNGPTKILLNYFGNYVPNSWTQDNGCTLCEFDTVDLSAVDVHPNVSIGVFIEQPTPFLPRFLDILLTLDYPKEALKLFIHNKEVYHEKDIKVFFDKAKHEIKTIKIVGPEENLSQAEARNMGMDFCRQDEKCDYYFSVDADVVLTNPRTLKILIEQNRKIIAPLVTRHGKLWSNFWGALSPDGYYARSEDYVDIVQGNRVGVWNVPYMANVYLIKGKTLRSEMNERNYFVRDKLDPDMALCRNAREMTLQREKDSPTPETFQMLSPPKGVFMYISNRHEFGRLLSTANYNTSHYNNDLWQIFENPVDWKEKYINRDYSKIFTENIVEQPCPDVFWFPIFSEKACDELVEEMEHYGKWSGGKHHDSRISGGYENVPTDDIHMKQVDLENVWLDFIREFIAPVTLKVFAGYYTKGFALLNFVVKYSPERQRSLRPHHDASTFTINIALNNVGEDFQGGGCKFLRYNCSIESPRKGWSFMHPGRLTHLHEGLPVKNGTRYIAVSFIDP
modifications: His6 tag; CDS (1)..(2277)
notes: recombinant human lysyl hydroxylase isoform 2, alternatively spliced form b
For B1, the “GGT activity in cell lysates” value [1] was “none of these recombinant proteins had detectable GGT activity”, the “LH activity” value [2] was “no LH activity can be found” and the “generation of GT activity” value [3] was “did not generated GT activity”. For the same molecule, the “generation of GT activity” value [4] was “LH3 was the only one being able to generate GT activity”.
